Blank lines part the entries; values can stand above or below the molecule they belong to.
How the values were obtained:
HeLa cells = assay: MTT cell viability/growth inhibition, HeLa; format: cell-based, human; details: HeLa CARP-1 (Δ600–650) vs WT CARP-1-expressing counterparts, mean of three experiments
Experimental: (§1) Routine maintenance and culture of MDA-MB-468 (lacking estrogen receptor; ER and having mutant p53) human triple-negative breast cancer (TNBC) cells, human cervical cancer HeLa, human kidney cancer UOK 262, non-small-cell lung cancer H1975, and HCC827 cells was carried out essentially as described previously. Generation and characterization of MDA-MB-468 cells expressing reduced CARP-1 was described previously. The stable sublines were generated by transfecting the MDA-MB-468 and Hela cells with the pcDNA3 vector, pcDNA3-CARP-1 wild-type (WT)-myc-His clone 6.1.2, pcDNA3-CARP-1(Δ600–650)-myc-His, pcDNA3-EGFP, pcDNA3-EGFP-H2AX (1–35), or pcDNA3-EGFP-CARP-1 (636–650) plasmids, followed by selection in the presence of 800 μg/mL neomycin using described methods. The cell lysates from wild-type, untransfected cells, neomycin-resistant pools, or individual sublines were then subjected to MTT-based viability, confocal, immunoprecipitation (IP), and Western blot (WB) analyses as below.
(§2) The cell growth inhibition was assessed using an MTT assay following the established protocols described by us previously.
(§3) Here, we utilized human TNBC MDA-MB-468 and human cervical cancer HeLa cells to conduct an MTT-based dose-response analysis using Adriamycin and CFM compounds. […] Since Adriamycin, CFM-4, and CFM-4.16 have molecular masses of 543.3, 404.9, and 440.3, respectively, we chose to use an equimolar dose of each compound in the MTT assays. […] Prior reports established that phosphorylation of H2AX at serine 139 (γ-H2AX) is involved in DNA damage repair and apoptotic signaling by ATM/ATR and JNKs, respectively. Next, the MDA-MB-468, HeLa, and the kidney cancer UOK 262 cells were treated with a 10 μM dose of the CFM-4.16 or Adriamycin for various time periods. The cell lysates from the control, untreated, and treated cells were analyzed by WB for expression of CARP-1, phospho-JNK1/2, phospho-H2AX, and poly ADP ribose polymerase (PARP) proteins. […] The H2AX activation is also indicative of DNA damage and involves pro-apoptotic JNKs. Our data in Figure 1C and Figure S1B,C (Supplementary Materials) also show activation of JNKs; however, a robust JNK activation is co-incident with H2AX phosphorylation following treatments with Adriamycin or CFM-4.16.
Figure 8 Ectopic expression of TAT-CARP-1 (636–650) peptide results in enhanced viabilities of Adriamycin-treated cells. MDA-MB-468 (A) or HeLa (B) cells were pre-incubated with 300 μg/mL indicated peptides for 72 h, followed by treatments with the noted dose and time of Adriamycin. Determination of viable/live cells was carried out using an MTT assay as described in Section 2. The bar charts in panels A and B represent means of three and two independent experiments, respectively; bars, SE. (C) Indicated cells were either pre-incubated with 6 μg/mL indicated peptides for 72 h or not (Control), followed by treatments with Adriamycin as noted. Cells were then processed for immunofluorescence staining for TAT-CARP-1 peptide (red), γH2AX (green), and DAPI (blue) as detailed in Section 2 and Figure S3 (Supplementary Materials). Insets in C show enlarged areas of respective photomicrographs to indicate presence of TAT-CARP-1 peptide and γH2AX in respective columns. The insets in the top and middle rows of the merge column show co-localization of TAT-CARP-1 peptide, and γH2AX (magnification: 250×).
Figure S7. Disruption of H2AX interaction with CARP-1 results in enhanced viabilities of CFM-4, CFM-4.16, or Adriamycin-treated cells in part due to reduced γH2AX and apoptosis. (A,B,C) Indicated HeLa cell lines were treated with DMSO (Control), noted dose and time of Adriamycin, CFM-4, or CFM-4.16 compounds. Determination of viable/live cells was carried out by MTT assay as in methods. The columns in bar charts in panels A, B, C represent means of three independent […]
experiments; bars, SE. […]

MDA-MB-468 cells = assay: MTT cell viability/growth inhibition, MDA-MB-468; format: cell-based, human; details: MDA-MB-468 CARP-1 (Δ600–650) vs WT CARP-1-expressing counterparts, MTT, mean of three experiments
Experimental: as §1, §2, §3
Figure 7 Disruption of H2AX interaction with CARP-1 results in enhanced viabilities of CFM-4-, CFM-4.16-, or Adriamycin-treated cells in part due to reduced apoptosis. (A,C,D) Indicated MDA-MB-468 cell lines were treated with DMSO (Control), or with the noted dose and time of Adriamycin, CFM-4, or CFM-4.16 compounds. Determination of viable/live cells was carried out by MTT assay as described in Section 2. (B,E,F) Cell lysates derived from vehicle DMSO (Control), or CFM-4-, CFM-4.16-, or Adriamycin-treated cells were added to the wells that had immobilized fluorogenic substrates of noted caspases. The fluorescence released from the activated caspase-dependent cleavage of respective substrate was detected by a plate reader at the excitation and emission wavelengths of 380 nm and 460 nm, respectively, as detailed in Section 2. The columns in bar charts in panels A, C, D and B, […] represent means of three and two independent experiments, respectively; bars, SE. For panels C and D, * p < 0.05, **p < 0.01 and *** p ≤ 0.001 relative to the respective EGFP vector subline. For panels E and F, *** p ≤ 0.05 relative to the respective EGFP vector subline.
Figure 8 Ectopic expression of TAT-CARP-1 (636–650) peptide results in enhanced viabilities of Adriamycin-treated cells. MDA-MB-468 (A) or HeLa (B) cells were pre-incubated with 300 μg/mL indicated peptides for 72 h, followed by treatments with the noted dose and time of Adriamycin. Determination of viable/live cells was carried out using an MTT assay as described in Section 2. […]

[1] = biological target: CARP-1 (636–650) peptide, biotin-labelled (human) (UniProt Q8IX12); assay: SPR; SPRi (PlexArray HT); CARP-1 (636–650) peptide printed on bare gold-coated PlexArray Nanocapture chip, blocked with 5% non-fat milk; PBST pH 7.4, 25 °C; global fit to a 1:1 interaction model
Gst-H2AX = assay: Gst-pulldown with Gst-H2AX; format: binding, human; details: E. coli-expressed, 4 °C, 2 h, WB anti-HA, Figure 5A
Experimental: Logarithmically growing cells were either untreated or treated with different agents for various time periods. The cells were lysed to prepare protein extracts. IP was carried out by incubating approximately 1 mg of the protein lysate with appropriate antibodies. The immunoprecipitates were then analyzed by SDS-PAGE, followed by WB with respective, interacting protein. For Gst-pulldown, Gst-H2AX or various His-TAT-HA-tagged CARP-1 peptides were generated in Escherichia coli (E. coli) BL21 cells essentially as described by us previously. Briefly, the competent E. coli BL-21 (DE3) pLysS cells were transformed separately with various recombinant pGEX-4T-1 or pTAT-HA constructs. The transformed cells were then subjected to selection by combined presence of ampicillin and chloramphenicol; various isolates for each transformation were obtained and bacterial lysates were characterized for expression of fusion peptides. Cells from each isolate were grown in 4 mL of LB medium containing ampicillin only until the optical density (OD)600 reached 0.4–0.8. Expression of fusion peptides was induced over 2–4 h incubation periods after Isopropyl β-D-1-thiogalactopyranoside (IPTG) addition. The cells were harvested, and pellets were stored at −80 °C overnight. […]

Molecule: O=C1N(Cc2ccccc2Cl)c2ccccc2C12NN=C(c1ccccc1)S2 (stereo not drawn) [CFM-4]
growth inhibition of CARP-1 (Δ600–650)-expressing cells (HeLa cells): resistant to inhibition by CFM-4 or ADR | growth inhibition of CARP-1 (Δ600–650)-expressing cells (MDA-MB-468 cells): resistant to inhibition by CFM-4 or ADR

Kd [1]: 126 nM | koff [1]: 0.000292 s⁻¹ | kon [1]: 2320 M⁻¹ s⁻¹
Molecule: H2AX (1–35) peptide (from UniProt P16104 1-35)

binding with Gst-H2AX protein (Gst-H2AX): bound with Gst-H2AX protein
B1: His-TAT-HA-CARP-1 (552–654): E. coli-expressed His-TAT-HA-tagged CARP-1 peptide (peptide)
chain: RPEETHKGRTVPAHVETVVLFFPDVWHCLPTRSEWETLSRGYKQQLVEKLQGERKEADGEQDEEEKDDGEAKEISTPTHWSKLDPKTMKVNDLRKELESRALS
modifications: left off: His, end not stated, kept | TAT, end not stated, kept | HA, end not stated, kept
notes: E. coli-expressed His-TAT-HA-tagged CARP-1 peptide

Reference: PMC6406907, “A H2AX–CARP-1 Interaction Regulates Apoptosis Signaling Following DNA Damage” (Cancers, 2019)
